The text below walks through data of patent publication US20230235048A1 (PROTHENA BIOSCIENCES, published 2023).

Changes are numbered by the printed parent chain.

In test [1] the target is T1, sortilin array peptides with the consensus motif RTEFGMAIGP (human, not fully specified; array peptides cyclized via a thioether linkage between a C-terminal cysteine and a modified N-terminus).
T1 construct: Consensus motif of overlapping 7, 10 and 13 amino acid conformational microarray peptides
T1 peptide: RTEFGMAIGP
The test is described as follows: PEPperMAP conformational (cyclized) peptide microarray, mAb 10-100 ug/mL.

Test [2] deals with T2, human sortilin on the cell surface (recombinant huSortilin on HEK 293 cells; endogenous on U251MG cells) (human, UniProt Q99523 78-831).
T2 construct: whole, on cells; also called huSortilin expressing HEK293 cells; cell surface huSortilin
T2 sequence (looked up): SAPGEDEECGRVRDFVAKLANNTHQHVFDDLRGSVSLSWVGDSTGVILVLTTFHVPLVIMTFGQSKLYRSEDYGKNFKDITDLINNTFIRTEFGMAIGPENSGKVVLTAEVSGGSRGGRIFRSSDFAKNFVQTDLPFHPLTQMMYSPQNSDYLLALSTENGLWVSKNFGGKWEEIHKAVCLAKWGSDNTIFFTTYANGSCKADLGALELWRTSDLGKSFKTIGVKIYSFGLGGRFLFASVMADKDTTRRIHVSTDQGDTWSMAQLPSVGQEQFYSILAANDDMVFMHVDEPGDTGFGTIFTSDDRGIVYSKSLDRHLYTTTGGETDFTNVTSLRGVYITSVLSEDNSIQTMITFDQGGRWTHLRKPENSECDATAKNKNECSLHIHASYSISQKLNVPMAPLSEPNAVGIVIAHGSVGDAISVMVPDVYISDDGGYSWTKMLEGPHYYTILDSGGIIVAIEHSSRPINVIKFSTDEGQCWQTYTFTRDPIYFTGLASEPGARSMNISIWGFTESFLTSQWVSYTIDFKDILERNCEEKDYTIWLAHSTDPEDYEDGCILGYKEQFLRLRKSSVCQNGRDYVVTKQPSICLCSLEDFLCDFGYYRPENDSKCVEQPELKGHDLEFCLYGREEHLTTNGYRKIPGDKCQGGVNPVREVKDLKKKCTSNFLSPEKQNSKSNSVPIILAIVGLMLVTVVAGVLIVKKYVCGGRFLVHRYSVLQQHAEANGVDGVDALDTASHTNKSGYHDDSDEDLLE
Description: cell-based blocking titration (flow cytometry), huSortilin HEK293 cells; blocked ligand 30 nM huPGRN-Biotin. As for the experimental part:
Cells were cultured using standard methods. […] Cells were then washed twice in PBS+2% FBS and incubated for 30 minutes on ice with 50 uL per well 1:200 Steptavidin-APC (BD biosciences) in PBS+2% FBS. Cells were then washed as above and resuspended in 100 uL PBS+2% FBS. Data was acquired using the BD LSR II and analyzed using FlowJo software version 10.6 and Microsoft excel.
The cell-based blocking assay was repeated with the top 12 blocking mAbs using a dose titration from 67 nM to 0.4 nM. Blocking assay was carried out as above. Data was analyzed using FlowJo software version 10.6. and GraphPad Prism software.

In test [3] the target is T3, extracellular domain (ECD) of recombinant human Sortilin with a C-terminal HIS tag (ECD-huSortilin-HIS) (human, UniProt Q99523 78-755).
T3 construct: Bought (R&D Systems); also called human sortilin-ECD; not shown: C-terminal HIS tag
T3 sequence: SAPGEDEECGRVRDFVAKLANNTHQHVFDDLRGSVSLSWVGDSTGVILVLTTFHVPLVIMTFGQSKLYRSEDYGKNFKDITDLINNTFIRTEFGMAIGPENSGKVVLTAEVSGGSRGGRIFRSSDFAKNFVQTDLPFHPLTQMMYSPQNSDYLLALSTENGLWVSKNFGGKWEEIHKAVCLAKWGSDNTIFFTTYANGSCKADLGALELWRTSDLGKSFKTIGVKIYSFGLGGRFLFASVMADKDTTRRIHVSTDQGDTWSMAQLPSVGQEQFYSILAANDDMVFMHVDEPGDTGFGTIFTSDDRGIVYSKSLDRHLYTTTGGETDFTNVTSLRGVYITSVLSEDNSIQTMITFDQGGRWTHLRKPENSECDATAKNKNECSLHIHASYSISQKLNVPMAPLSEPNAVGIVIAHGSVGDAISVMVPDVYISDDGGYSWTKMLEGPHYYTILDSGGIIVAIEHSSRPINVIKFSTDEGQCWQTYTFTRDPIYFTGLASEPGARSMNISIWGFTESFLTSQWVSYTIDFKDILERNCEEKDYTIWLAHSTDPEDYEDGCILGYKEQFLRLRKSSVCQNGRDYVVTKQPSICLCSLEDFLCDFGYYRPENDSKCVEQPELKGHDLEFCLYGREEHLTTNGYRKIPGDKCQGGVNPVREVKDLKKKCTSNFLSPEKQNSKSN
The test is described as follows: ELISA, Ab binding to hSortilin-ECD. Here is the method: Purified anti-huSortilin mAb binding to huSortilin was characterized by ELISA (ELISA protocol as in Example 1) using a 12 point titration of mAb concentration. mAbs were diluted 2-fold from a starting concentration of 67 nM and then added to ECD-huSortilin-HIS coated plates. Data was analyzed and EC₅₀ (nM) was calculated using graphed Prism. Commercially available goat anti-huSortilin (R&D Biosystems) was used as a positive control. Results are depicted in FIG. 8.

In test [4] the target is T3, extracellular domain (ECD) of …. The test is described as follows: blocking ELISA, coated ECD-huSortilin-HIS; blocked ligand huPGRN-Biotin.
Test [5] has the same target. The test is described as follows: SPR (Biacore T200), mAb captured by anti-mouse antibody on CM5, Sortilin 0.1-300 nM as analyte, global 1:1 fit. Here is the method: Analysis was performed using a Biacore T200 to compare the binding affinity of murine anti-huSortilin antibodies to recombinant human Sortilin. Anti-mouse antibody was immobilized on sensor chip CM5 (GE Healthcare Life Sciences) via amine coupling, and mouse antibodies (ligand) were captured to a level to ensure a maximum binding of analyte of 50 RU (approximately 100RU of ligand binding). Various concentrations of Sortilin (ranging from 0.1 nM to 300 nM) were passed over the captured ligand at […] in running buffer (HBS+0.05% P-20, 1 mg/mL BSA) for 180-300s association time and 300-900s dissociation time. Regeneration of the chip surface was accomplished by 2 short injections of 10 mM Glycine-HCl at pH 1.7. Data was blank subtracted to both a sensor not containing ligand and 0 nM analyte concentration. Analysis was performed using a global 1:1 fit with Biacore Insight Evaluation software (v2.0) with bulk refractive index set to zero RU.

The target is the same in test [6]. Description: blocking ELISA, coated ECD-huSortilin-HIS, purified mAb; blocked ligand huPGRN-Biotin.

B1: mouse monoclonal antibody 8H24 (antibody, mouse IgG2c, V domains shown)
VH: QAYLQQSGTELVRPGASVKMSCKASGYTFTSYSMHWVKQTPRQGLEWIGAIYPGNDATSYNQKFKGKATLTVDKSSSTAYMQLSSLTSEDSAVYFCAREGYYGSSFEAWFASWGQGTLVTVSA
VL: DVLMTQTPLSLPVSLGDQASISCRSSQSIVHSNGNTYLEWYLQKPGQSPKLLIYKVSNRFSGVPDRFSGSGSGTDFTLKISRVEAEDLGVYYCFQGSHVLPTFGGGTKLEIK
notes: mouse IgG2c, kappa; also called mu8H24; m8H24
As to B1, the binding result in test [1] was “binds”. Besides, the “% Max blocking at 11nM mAb” value in test [2] came to 66%. Also, in test [3], the EC50 was determined as 0.4 nM. For the same molecule, the “% Blocking at 7.4nM mAb” value in test [4] was determined as 89%. Moreover, the Kd in test [5] stood at 4.56 nM.

B2: mouse monoclonal antibody 2C14 (antibody, mouse IgG1, V domains shown)
VH: EVQLVESGGDLVKPGGSLKLSCAASGFTFNTHGMSWVRQTPDKSLEWVATISTGGFYTSYPDSVKGRFTISRDNAKNTLFLQMSSLKSEDTAMYYCAKSSSHWYFDVWGTGTTVTVSS
VL: DILMTQSPSSMSVSLGDTVSITCHASQGISSNIGWLQQKPGKSFKGLIYHGTNLEDGVPSRFSGSGSGADYSLTISSLEYEDFADYYCVQYAHFPYTFGGGTKLEIK
notes: mouse IgG1, kappa
Take B2: the “% Max blocking at 11nM mAb” value in test [2] worked out at 64%. Besides, the EC50 in test [3] is 1 nM. Besides, the “% Blocking at 7.4nM mAb” value in test [4] was 79%. For the same molecule, the Kd in test [5] is 11.8 nM.

B3: mouse monoclonal antibody 5E20 (antibody, mouse IgG1, V domains shown)
VH: EVQLVESGGDLVKPGGSLKLSCAAPGFTFSTYGMSWVRQTPDKRLEWVAIISSGGSYTYYSDTVKGRFTISRDNAKNTLYLQMSSLKSEDTAMYYCSRSSSHWYFDVWGTGTTVTVSS
VL: B2 VL with E55K, Y71F, Y80S, Y87F, H93Q, I106K, K107R
notes: mouse IgG1, kappa; also called ms5E20; ms5E20new
Regarding B3, in test [2], the “% Max blocking at 11nM mAb” value was 54%. Further, the half-maximal effective concentration (EC50) in test [3] amounted to 1.1 nM. For the same molecule, in test [4], the “% Blocking at 7.4nM mAb” value is 76%. Further, in test [5], the Kd worked out at 1.59 nM.

B4: mouse monoclonal antibody 6B15 (antibody, mouse IgG1, V domains shown)
VH: B3 VH with Y80N, Y95F
VL: B2 VL with S7F, E55K, A69T, Y71F, Y80S, H93Q, I106K, K107R
notes: mouse IgG1, kappa
For the molecule B4, in test [2], the “% Max blocking at 11nM mAb” value stood at 33%. The “IC50 (read off the curve)” value in test [6] is about 5 nM. For the same molecule, the EC50 in test [3] was 3.8 nM. The “% Blocking at 7.4nM mAb” value in test [4] stood at 51%. For the same molecule, the Kd in test [5] turned out to be 1.02 nM.

B5: mouse monoclonal antibody 11M14 (antibody, mouse IgG1, V domains shown)
VH: EVQLVESGGDLVKPGGSLKLSCAASGFTFNIYGMSWVRQTPDKRLEWVATISSGGIYTYYPDILKGRFTISRDNAKNTLYLQMSSLKSEDTAMYYCARHPGGAMDYWGQGTSVTVSS
VL: DIQMTQSPASLSVSVGETVTITCRVSENIYSNLAWYQQKQGKSPHLLVYAATNLADGVPSRFSGSGSGTQYSLKINSLQSEDFGSYYCQHFWGTPPWTFGGGTKLEIK
notes: mouse IgG1, kappa; also called ms11M14
Turning to B5, the “% Max blocking at 11nM mAb” value in test [2] was found to be 48%. Besides, the EC50 in test [3] came out at 0.8 nM. The “% Blocking at 7.4nM mAb” value in test [4] was found to be 75%. The Kd in test [5] came out at 6.24 nM.

B6: mouse monoclonal antibody 2F18 (antibody, mouse IgG1, V domains shown)
VH: B5 VH with S53T, I63S, L64V, G101V, M104L
VL: B5 VL with M4V, V25A, A50T, N53T
notes: mouse IgG1, kappa
Take B6: the “% Max blocking at 11nM mAb” value in test [2] was found to be 41%. In addition, in test [3], the EC50 turned out to be 0.7 nM. Further, the “% Blocking at 7.4nM mAb” value in test [4] came to 76%. Also, in test [5], the Kd stood at 2.81 nM.

B7: mouse monoclonal antibody 2P22 (antibody, mouse IgG2b, V domains shown)
VH: EVQLVESGGDLVKPGGSLKLSCAASGFTFSIYGMSWVRQTPDKKLEWVAAISSGGIYTYYPDSVKGRFTISRDNAKNTLYLQMSSLKSADTAMYYCTRNDYDWFAYWGQGTLVTVSA
VL: DIQMTQSPSSLSASLGERVSLTCRASQDIGSSLNWLQQEPDGTIKRLIYATSSLDSGVPKRFSGSRSGSDYSLTISSLESEDFVDYYCLQYASSPYTFGGGTKLEIK
notes: mouse IgG2b, kappa
In the case of B7, the “% Max blocking at 11nM mAb” value in test [2] came out at 40%. In addition, in test [3], the EC50 was found to be 0.8 nM. Further, the “% Blocking at 7.4nM mAb” value in test [4] worked out at 67%. The Kd in test [5] came to 2.21 nM.

B8: mouse monoclonal antibody 5M13 (antibody, mouse IgG1, V domains shown)
VH: DVQLQESGPGLVKPSQSLSLTCTVTGYSITSDYAWNWIRQFPGNKLEWMGYISSSGSTSYNPSLKSRISVTRDTSKNQFFLQLNFVTAEDTATYYCAFVTTTMDYWGQGTSVTVSS
VL: DVVMTQTPLSLPVSLGDQASISCRSSQSLVHSNGNTYLHWYLQKPGQSPKLLIYTVSNRFSGVPDRFSGSGSGTDFTLKISRVEAEDLGVYFCSQSTHVPFTFGSGTKLEIK
notes: mouse IgG1, kappa
In the case of B8, in test [2], the “% Max blocking at 11nM mAb” value came to 0%. Moreover, the EC50 in test [3] came out at 2.7 nM. The “% Blocking at 7.4nM mAb” value in test [4] stood at 27%. In test [5], the Kd was 2.29 nM, the koff stood at 0.000411 s⁻¹ and the kon turned out to be 179000 M⁻¹ s⁻¹.
